Reference: patent US20140227280A1 (CENTRE NATIONAL DE LA RECHERCHE SCIENTIFIQUE, published 2014)

B2: mouse MCM8 protein (other)
chain: MSGAYRGRGFGRGRFQSWKRGRGGGNFSGRWRERENRVDLNEASGKHASAQASQPLLQQSTLDQFIPYKGWKLYFSEVYSNNSPFIEKIQAFEKFFTRHIDLYDKDEIERKGSILVDFKELTKADEITNLIPDIENALRDAPEKTLACMGLAIHQVLTKDLERHAAELQAQEGLSNGGETMVNVPHIYARVYNYEPLTHLKNIRATCYGKYISIRGTVVRVSNIKPLCTNMAFQCAACGEIQSFPLPDGKYTLPTKCPVPACRGRSFAPLRSSPLTVTLDWQLIKIQELMSDAQREAGRIPRTIECELVHDLVDSCVPGDTVTVTGIVKVSNSEEGSRNKNDKCMFLLYIEANSVSNSKGPKAQTAEDGCKHGTLMEFSLKDLYAIREIQAEENLLKLVVNSLCPVIFGHELVKAGLTLALFGGSQKYADDKNRIPIRGDPHVLIVGDPGLGKSQMLQAACNVAPRGVYVCGNTTTSSGLTVTLSKDSSSGDFALEAGALVLGDQGICGIDEFDKMGNQHQALLEAMEQQSISLAKAGVVCSLPARTSIVAAANPVGGHYNKARTVSENLKMGSALLSRFDLVFILLDTPNEQHDHLLSEHVIAIRAGKQKAVSSATVTRVLSQDSNTSVLEVVSEKPLSERLKVAPGEQTDPIPHQLLRKYIGYARQYVHPRLSTDAAQALQDFYLELRKQSQRVGSSPITTRQLESLIRLTEARARLELREEATREDAEDIIEIMKHSMLGTYSDEFGNLDFERSQHGSGMSNRSTAKRFISALNSIAERTYNNIFQYHQLRQIAKELNIQVADFENFIGSLNDQGYLLKKGPKIYQLQTM
notes: Endogenous protein in mouse testes extracts and MEF cell extracts

Legend:
mouse MCM8 protein = target: B2; assay: co-immunoprecipitation from mouse testes extracts, western blot (FIG. 18A)
From the text: (§1) FIG. 18A represents immunoprecipitations of MCM8 (IP anti-MCM8; lane C) and MCM9 (IP anti-MCM9; lane D) from testes extracts blotted against MCM9 (panel 1), MCM8 (panel 2), MCM2 (panel 3) and MCM5 (panel 4). To normalize the loading, IgGs of each IP are also shown (panel 5).

MCM2 = target: T1, MCM2 (mouse, UniProt P97310 2-904); assay: as above
T1 construct: Detected by western blot (sc-9839) in the immunoprecipitates from mouse testes extracts; also called member of the MCM2-7 complex
T1 sequence (P97310 2-904 limits assumed): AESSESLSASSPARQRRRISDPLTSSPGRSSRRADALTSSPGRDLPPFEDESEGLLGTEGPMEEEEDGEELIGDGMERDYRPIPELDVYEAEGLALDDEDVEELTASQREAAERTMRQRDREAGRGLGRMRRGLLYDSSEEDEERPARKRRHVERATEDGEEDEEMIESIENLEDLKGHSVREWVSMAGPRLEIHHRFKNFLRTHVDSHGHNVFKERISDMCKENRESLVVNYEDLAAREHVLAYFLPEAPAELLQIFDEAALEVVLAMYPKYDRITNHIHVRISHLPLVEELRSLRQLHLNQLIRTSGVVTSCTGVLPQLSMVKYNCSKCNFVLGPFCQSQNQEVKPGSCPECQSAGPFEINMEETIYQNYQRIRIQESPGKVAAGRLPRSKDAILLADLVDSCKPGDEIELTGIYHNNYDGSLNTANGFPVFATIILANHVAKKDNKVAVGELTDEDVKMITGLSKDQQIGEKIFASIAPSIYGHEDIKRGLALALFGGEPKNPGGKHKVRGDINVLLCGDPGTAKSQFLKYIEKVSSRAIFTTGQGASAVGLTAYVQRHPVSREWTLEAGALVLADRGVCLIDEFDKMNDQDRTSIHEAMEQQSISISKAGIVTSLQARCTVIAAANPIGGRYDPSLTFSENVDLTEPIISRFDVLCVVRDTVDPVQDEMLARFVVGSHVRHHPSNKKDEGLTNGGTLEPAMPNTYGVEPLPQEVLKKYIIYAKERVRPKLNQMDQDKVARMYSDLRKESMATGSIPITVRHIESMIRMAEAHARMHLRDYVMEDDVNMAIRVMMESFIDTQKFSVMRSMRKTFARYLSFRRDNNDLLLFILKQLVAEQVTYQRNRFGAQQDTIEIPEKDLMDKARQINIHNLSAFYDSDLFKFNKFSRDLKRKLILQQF
From the text: as §1

B1: MCM5 (other, mouse, UniProt P49718 2-734, looked up)
chain: SGFDDPGIFYSDSFGGDPGAEEGQARKSQLQRRFKEFLRQYRVGTDRTGFTFKYRDELKRHYNLGEYWIEVEMEDLASFDEELADHLHKQPAEHLQLLEEAAKEVADEVTRPRPAGDELLQDIQVMLKSDASPSSIRILKSDMMSHLVKIPGIIISASAVRAKATRISIQCRSCHNTLTNIAMRPGLEGYALPRKCNMDQAGRPKCPLDPYFIMPDKCKCVDFQTLKLQELPDAVPHGEMPRHMQLYCDRYLCDKVVPGNRVTIMGIYSIKKFGLNPSKGRDRVGVGIRSSYIRVLGIQVDTDGSGRSFAGSVSPQEEEEFRRLAALPNIYELISKSISPSIFGGMDMKKAIACLLFGGSRKRLPDGLTRRGDINLLMLGDPGTAKSQLLKFVEKCSPIGVYTSGKGSSAAGLTASVIRDPSSRNFIMEGGAMVLADGGVVCIDEFDKMREDDRVAIHEAMEQQTISIAKAGITTTLNSRCSVLAAANSVFGRWDETKGEDNIDFMPTILSRFDMIFIVKDEHNEERDMMLAKHVMTLHVSALTQTQAVEGEIDLAKMKKFIAYCRARCGPRLSAEAAEKLKNRYIIMRSGARQHERDSDRRSSIPITVRQLEAIVRIAEALSKMKLQPFATEADVEEALRLFQVSTLDAALSGNLSGVEGFTTQEDQEMLSRIEKQLKRRFAIGSQVSEHSIVQDFTKQKYPEHAIRKVLQLMLRRGEIQHRMQRKVLYRLK
notes: Detected by western blot (sc-22780) in the immunoprecipitates from mouse testes extracts; also called member of the MCM2-7 complex
binding result (mouse MCM8 protein): no binding

B2
binding result (MCM2): no binding
